Test system: intracellular proteome of ENR+CD and ENR organoids
Test: LC-MS/MS TMT proteomics of ENR+CD versus ENR organoids
Type: cell-based, C57BL/6 mice
Conditions: for Average logFC: ENR+CD versus ENR organoids, sample pairs in aggregate (n=4, 2 technical replicates from two biological donors); for M1-1 Log2 Median Normalized / M1-2 Log2 Median Normalized / M2-1 Log2 Median Normalized / M2-2 Log2 Median Normalized: protein abundance ratio ENR+CD versus ENR organoids, LC-MS/MS TMT proteomics; for M1-1 Log2 Median Normalized: sample pair M1-1; for M1-2 Log2 Median Normalized: sample pair M1-2; for M2-1 Log2 Median Normalized: sample pair M2-1; for M2-2 Log2 Median Normalized: sample pair M2-2; for change: up = enriched in ENR+CD, down = enriched in ENR, FDR<0.05 and log fold change cut-off

B1: Q6PCN3 (protein, UniProt Q6PCN3 1-1308, looked up)
chain: MQCLAAALKDETNMSGGGEQADILPANYVVKDRWKVLKKIGGGGFGEIYEAMDLLTRENVALKVESAQQPKQVLKMEVAVLKKLQGKDHVCRFIGCGRNEKFNYVVMQLQGRNLADLRRSQPRGTFTLSTTLRLGKQILESIEAIHSVGFLHRDIKPSNFAMGRLPSTYRKCYMLDFGLARQYTNTTGDVRPPRNVAGFRGTVRYASVNAHKNREMGRHDDLWSLFYMLVEFAVGQLPWRKIKDKEQVGMIKEKYEHRMLLKHMPSEFHLFLDHIASLDYFTKPDYQLIMSVFENSMKERGIAENEAFDWEKAGTDALLSTSTSTPPQQNTRQTAAMFGVVNVTPVPGDLLRENTEDVLQGEHLSDQENAPPILPGRPPEGLGPGPHLVPHPGGPEAEVWEETDVNRNKLRINIGKTPCVEEEQSRGVGVPSSPVRAPPDSPTTPVRSLCYRRVNSPESERLSTAADGRVELQERRSRMDLPGSPSRQACSSQPAQMLSVDTGHADRQASGRMDVSASVEQEALSNAFRSVPLAEEEDFDSKEWVIIDKETELKDFPPGAEPSTSGTTDEEPEELRPLPEEGEERRRLGTEPTVRPRGRGMHTLTEEDPRQMLPQPAPPQLSQADGRSETSQPPTPGSPSHSPLHSGPRPRRRESDPTGPQRQVFSVAPPFEVNGLPRAVPLALPYQDFKRDLSDYRERARLLNRVRRVGFSHMLLTAPQVPLAPFQPQANGKEGEEEEEEEEEEEEEEEEEEEEEEEEEEEEEEEEEAGALGEVLGPRSGSSSEGSERSTERSQEGAPSTLLADDQKEARGRASMADGDLEPEEGSKTLVLVSPGDMKKSPVTAELAPDPDLGTLAALTPQHERPQPTGSQLDVSEPGTLSSILKSEPKPSGPGAGGGVGLVAPGAGVTAVTSPFTKVERTFVHIAEKSHLNVMSSGGQASRPEELSTGGELGLEVLSEGGIAEEGAPAPLENGMALAGLDGTEMESCALSGPPGETPSEVVTDSLPNGPALADGPAPASQQEPVTKKGTTISPSRHAMPGSRPRSRIPVLLSEEDTGSEPSGSLSAKERWSKRARPQQDLARLVMEKRQGRLLLRLASGASSSSSEEQRRASETLSGTGSEEDTPASEPTTALPRKAVRAATTRSRIPRPISVSMPVEGQQLPGRPHGAASATDLAITSRLQLQKPSGLAPAADLRPKQSASRGPGPGRAQVSKPAAPRSPGLPASTARHPSGSPRSQSLSRKESSSPSHQARPGVPPSRGVLQVRSQPEASPVAPKKGPKGKQLQTQRAATKGRAVVSEGRPGAR
modifications: full-length
- Average logFC: 1.301
- M1-1 Log2 Median Normalized: 0.917
- M1-2 Log2 Median Normalized: 1.005
- M2-1 Log2 Median Normalized: 1.5695
- M2-2 Log2 Median Normalized: 1.711
- change: up

B2: Q6UQ17 (protein, UniProt Q6UQ17 1-1335, looked up)
chain: MDGVHLGENLEDKDTEFTWEVKANDRTYHKQFKKKGFLCWRQKKYKSNAIHTAKYNIFSFLPLNLYEQFHRMSNLYFLFIIILQGIPEISTLPWFTLFAPLVCLFVIRATRDLVDDIGRHRSDKIINNRPCQILRGKSFLWKKWKNLCVGDVVCLSKDSIVPADLLLLASTEPSSLCYVETADIDGETNLKFRQALTVTHHELTSPKKMASFQGTVTCEEPNSRMHHFVGSLEWNSRKYPLDIGNLLLRGCKIRNTDTCYGLVIYAGLDTKIMKNCGKIHLKRTKLDLMMNKLVALIFLSLVIASLLLTVGFTFMVKQFKAKHYYMSPTHGRSDAMESFFIFWGFLILLSVMVPMAMFIIAEFIYLGNSIFINWDLNMYYEPLDMPAKARSTSLNDQLGQVQYIFSDKTGTLTQNIMTFKKCCINGCIYDSDDEHGTLRKRNPYAWNPFADGKLQFYNKELESLVQGRQDRAVQEFWRLLAICHTVMVQEKDNQLLYQAASPDEEALVTAARNFGYVFLSRTQDTITLVELGEERVYQVLAMMDFNSVRKRMSVLVRNPEGSICLYTKGADTVILERLRSKGVMEATTEEVLAAFAEQTLRTLCLAYKDVEEDAYKEWEPEHQEAALLLQNRAQALHQVYNKMEQNLQLLGATAIEDKLQDGVPETIKCLKKGNIKIWVLTGDKPETAVNIGFACQLLSENMIILEDKDINQVLERYWEDNVHQKAFKMMTHHNMALVINGEFLDQLLLSLRKEPRALVQNAVVDEVAQEPVVSALDFLQKRRISQMWRNAGPSLGTSHSADSKIRESPEVQRERAFVDLASKCQAVICCRVTPKQKALVVALVKKYQQVVTLAIGDGANDVNMIKTADIGVGLAGQEGMQAVQNSDYVLAQFCYLQRLLLVHGRWSYMRVCKFLRYFFYKTVASMMAQIWFSLVNGFSAQPLYEGWFLALFNLLYSTLPVLYIGLFEQDVTAEKSLKMPELYMAGQKGELFNYSIFMQAITHGTITSMINFFVTVMVSSDMSKAGSSHDYQSLGVLVAISSLLSVTLEVMLVVKYWTLLFVGAVVLSLSSYVLMTSLTQSLWMYRISPKTFPFLFADYNVLFEPCSLLLIVLNVALNVLPMLALRTIHRTVLKQRPKGEEEAPSEEVAVEPAMRHLRRGIPARRSSYAFSHREGYANLITQGTILRRQTHVDDSDGGTVCESLNPPEEDIPLQNKDSVFNPRKISILAKKRRHFFGKGSQEEVHPNTSSQTMEKQPTIHRDSETQKLPTTTSATSGKLLPSASEDEAFYSVASQYTLASQPKHTDVHSSFWKSPLWRDSASSSPSQLEVPRKQS
modifications: full-length
- Average logFC: 1.464
- M1-1 Log2 Median Normalized: 1.126
- M1-2 Log2 Median Normalized: 1.134
- M2-1 Log2 Median Normalized: 1.7555
- M2-2 Log2 Median Normalized: 1.841
- change: up

B3: Q6ZQL4 (protein, UniProt Q6ZQL4 1-677, looked up)
chain: MAAGGGGSYDPLAPAGVPCAFSPDSQAYFALASSDGQLRVWETANNRLHQEYVPSAHLSGTCTCLAWAPARLQAKESHQRKKRKSEVTGTKDQADLLALGTAVGSILLYSTVRGELHSKLTSGGHENRVNCIQWHQDNDCLYSCSDDKYIVEWSTQTCKVKCKWKGDNSSVSSLCISPDGKMLLSAGRTIKLWVLETKEVYRHFTGHATPVSSLRFTTIRPNESQPSDGITGLYFLSGAVHDRLLNVWQVRSENKEKSAVMSFTVTDEPVYVDLTLSENKEEPVKLAVVCRDGQVHLFEHILNGHCKKPLTSNCTIQIATPGKGKKVTPKPIPILAASFCLDKMSLLLVYGNWFQPTIERVALNSKDTHICLERDISNCWAPTVETAITKVKTPVMNSEAKVLVPGIPGHHAPIKLPPAQPKEAENKRKLGSTEATIEERLGAMDLDRKGRKDDLQTNSFAVLLTQGLESNDFEILNKVLQTKNVNLIKRTVLRIPLRVVIPLLQELTKRLQGHPNSAALMIQWLKCVLTIHASYLSTLPDLVEQLGTLYQLMESRVKTFQKLSNLHGKLILLVTQVTASEKSKKMTSPGQKAKLVYEEESSEEESDDEVPEKDSDDNWDEDEDKDSEKDEGVDEDNEEEDEDMEDKEENEEDREVSSEKELNGDSDLDPENESEEE
modifications: full-length
- Average logFC: −1.143
- M1-1 Log2 Median Normalized: −1.562
- M1-2 Log2 Median Normalized: −0.715
- M2-1 Log2 Median Normalized: −0.9435
- M2-2 Log2 Median Normalized: −1.351
- change: down

B4: Q768S4 (protein, UniProt Q768S4 1-302, looked up)
chain: MADTIFSSGNDQWVCPNDRQLALRAKLQTGWSVHTYQTEKQRRSQCLSPGELEIILQVIQRAERLDILEQQRIGRLVERLETMQRNVMGNGLSQCLLCGEVLGFLGSSSVFCKDCRKKVCTKCGIEASPGQKRPLWLCKICSEQREVWKRSGAWFYKGLPKYILPLKTPGRADDPHFRPLPVEPTETQPPSAETSRVYTWARGRVVSSDSDSDSDLSSSSLEDRPLPSGVKGTKGDKPRGDSGASMESPRLGPARPPSHLSGSQSSLGSEAGTGATEPQGGTPAQPEPRVPGKRHTWATPRY
modifications: full-length
- Average logFC: 1.363
- M1-1 Log2 Median Normalized: 1.2
- M1-2 Log2 Median Normalized: 0.548
- M2-1 Log2 Median Normalized: 1.8455
- M2-2 Log2 Median Normalized: 1.859
- change: up

Reference: patent publication US11994512B2, “Single-cell genomic methods to generate ex vivo cell systems that recapitulate in vivo biology with improved fidelity” (Massachusetts Institute of Technology, priority 2018, dated 2024)
